Consider two molecules from patent US20110110959A1 (BIOSCEPTRE AUST, published 2011).

Assay [1] concerns the target HLA (human). In words: FACS, MCF-7 breast tumour cell line. In general terms: A flow cytometer gives signals particle by particle.
Assay [2] addresses HLA (human). In words: FACS, human lymphocytes.
For assay [3], the target named is U80. Description: ELISA, coated antigen, supernatant, duplicate 1. Background: An ELISA detects its analyte on a solid surface through an enzyme-linked reagent.
The target in assay [4] is U140. In words: ELISA, coated antigen, supernatant, duplicate 1.
The target of assay [5] is T1, composite peptide GHNYTTRNILPGAGAKYYKENNVEK (BSA carrier protein attached for coating of ELISA plates).
T1 construct: also called EP200/300; 200/300-peptide
T1 peptide: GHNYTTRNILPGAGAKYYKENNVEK
In words: ELISA, coated antigen, supernatant, duplicate 1.

In assay [6] the target is T2, 200 (a peptide having the sequence of the E200 region).
T2 construct: also called E200 peptide
T2 peptide: GHNYTTRNILPGLNITC
In words: ELISA, coated antigen, supernatant, duplicate 1.

Assay [7] has as its target T3, 300 (a peptide having the sequence of the E300 region).
T3 construct: also called E300 peptide
T3 peptide: KYYKENNVEKRTLIKVF
In words: ELISA, coated antigen, supernatant, duplicate 1.

The target of assay [8] is U80. In words: ELISA, coated antigen, supernatant, duplicate 2.
Assay [9] deals with U140. In words: ELISA, coated antigen, supernatant, duplicate 2.
The target of assay [10] is T1, composite peptide …. Description: ELISA, coated antigen, supernatant, duplicate 2.
Assay [11] addresses T2, 200 (a peptide having the sequence of …). Description: ELISA, coated antigen, supernatant, duplicate 2.
Assay [12] deals with T3, 300 (a peptide having the sequence of …). Description: ELISA, coated antigen, supernatant, duplicate 2.

In the assay with HLA (human) [1], HLA (W6/32) Positive Control (antibody) came in with a Mean Fluorescence Intensity (MFI) of 1670 MFI and a Percent Cells Positive of 87%. In the assay with HLA (human) [2], this molecule gave a Mean Fluorescence Intensity (MFI) of 3900 MFI and a Percent Cells Positive of 100%.

B1: 2A11 (antibody, V domains shown)
VH: QVQLQESGGGSVQAGGSLRLSCTASGFTLDDSDLGWYRQAPGNECELVSIIRRDGSPYHTYYPDSVKGRFTISQDNAKNTLYLQMNSLKPEDTAVYYCAADPSRYYSDYGAPGCGFNYWGQGTQVTVSS
Regarding B1, the ELISA absorbance (405 nm, reference 490 nm) in the assay with U80 [3] stood at 0.181 OD; with U140 [4] it was 0.17 OD; in assay [5], 3.62 OD; in assay [6], 0.138 OD; in assay [7] it was 0.144 OD; with U80 [8] it was 0.154 OD. Also, the ELISA absorbance (405 nm, reference 490 nm) was determined as 0.508 OD in the assay with U140 [9], 3.6 OD in assay [10], 0.194 OD in [11] and 0.186 OD in [12].
